These results are taken from article PMC10194908 (2023).

To fix the notation:
T1: Recombinant NS1 from DENV-3-Sri Lanka D3/H/IMTSSA-SRI/2000/1266 (dengue virus serotype 3 (Sri Lanka …, UniProt Q6YMS4 774-1125))
T1 chain: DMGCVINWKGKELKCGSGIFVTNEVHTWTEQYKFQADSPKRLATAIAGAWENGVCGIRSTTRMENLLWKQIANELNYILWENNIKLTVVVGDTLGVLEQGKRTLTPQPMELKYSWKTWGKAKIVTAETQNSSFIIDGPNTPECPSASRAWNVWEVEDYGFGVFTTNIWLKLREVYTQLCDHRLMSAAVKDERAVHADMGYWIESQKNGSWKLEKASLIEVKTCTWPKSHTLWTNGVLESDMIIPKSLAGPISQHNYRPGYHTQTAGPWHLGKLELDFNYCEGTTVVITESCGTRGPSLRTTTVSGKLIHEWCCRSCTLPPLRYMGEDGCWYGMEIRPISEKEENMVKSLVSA

T2: Recombinant NS1 from DENV-4-Dominica/814669/1981 (dengue virus serotype 4 …, UniProt P09866 775-1126)
T2 chain: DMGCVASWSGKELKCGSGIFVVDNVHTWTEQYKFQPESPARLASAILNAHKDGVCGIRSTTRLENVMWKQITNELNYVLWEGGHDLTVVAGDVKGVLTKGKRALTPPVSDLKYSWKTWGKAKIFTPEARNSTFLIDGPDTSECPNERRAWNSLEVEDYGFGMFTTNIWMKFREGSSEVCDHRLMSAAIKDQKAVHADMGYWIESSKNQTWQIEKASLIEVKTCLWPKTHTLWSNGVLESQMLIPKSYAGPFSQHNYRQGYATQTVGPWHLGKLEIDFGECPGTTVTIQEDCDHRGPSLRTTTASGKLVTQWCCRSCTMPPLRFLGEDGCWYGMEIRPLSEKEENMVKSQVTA

B1: D8 (antibody, V domains shown)
VH: QVQLQESGPGLVKPSETLPLTCTVSGGSISNNGFYWGWIRQPPGKGLEWIGNIYYRGSTYYNPSLNSRVTISVDTSKNQFSLQLNSVTAADTAVYYCARLGIQLWFAIDYWGQGTLVTVSS
VL: SVLTQPPAVSVALGQTVRITCQGDSLRSSYASWYQQKPGQAPVLIFYAKNNRPSGIPDRFSGSSSGNTASLTITGAQAEDEADYYCYSRDSSGNLWVFGGGTKLTVL
B2: D6 (antibody, V domains shown)
VH: EVQLVQSGGGLVQPGRSLRLSCAASGFTFQDYAMHWVRQAPGKGLEWVSGIGRDSGTIDYADSVKGRFTISRDNAKNSLYLQMNSLRAEDTALYYCAKISNGYRPDNWGQGTLVTVSS
VL: VLTQPPSVSVSPGQTARITCSGDVLAKRYARWFQQKPGQAPVVVIYKDSERPSGIPERLSGSSSGTTVTLTISGAQVEDEADYYCYCAADNNVVFGGGTKLTVL
B3: Recombinant NS1 from DENV-1-Nauru/Western Pacific/1974 (natural protein)
chain: DSGCVINWKGRELKCGSGIFVTNEVHTWTEQYKFQADSPKRLSAAIGKAWEEGVCGIRSATRLENIMWKQISNELNHILLENDMKFTVVVGDVSGILAQGKKMIRPQPMEHKYSWKSWGKAKIIGADVQNTTFIIDGPNTPECPDNQRAWNIWEVEDYGFGIFTTNIWLKLRDSYTQVCDHRLMSAAIKDSKAVHADMGYWIESEKNETWKLARASFIEVKTCIWPKSHTLWSNGVLESEMIIPKIYGGPISQHNYRPGYFTQTAGPWHLGKLELDFDLCEGTTVVVDEHCGNRGPSLRTTTVTGKTIHEWCCRSCTLPPLRFKGEDGCWYGMEIRPVKEKEENLVKSMVSA
B4: A2 (antibody, V domains shown)
VH: QVQLQESGGGVVQPGRSLRLFCAASGFTFSAFSTYAIHWVRQAPGKGLEWVAVISYDANNKYYADSVKGRFTISRDNFKSTLFLQMNSLRAEDTAVYYCARDRSDSGYDSYYYYYGMDVWGQGTTVTVSS
VL: QSVVTQPPSVSAAPGQKVTISCSGSSSNIGRNYVSWYQHLPGTAPKLLIYDNNKRRSGIPDRFSGSKSDTTATLGITGLQTVDEADYYCGSWDNSLSAYVFGTGTKVTV

What all share (experiment): BLI
In general terms: Biolayer interferometry detects binding as a change in optical thickness at a sensor tip.

Assay [1] concerns the target T3, Recombinant NS1 from DENV-2-Thailand/16681/84 (dengue virus serotype 2 …, UniProt P29990 776-1127).
Assay [2] addresses B3.
Assay [3] has as its target T1, Recombinant NS1 from DENV-3-Sri Lanka ….
Assay [4] concerns the target T2, Recombinant NS1 from ….
The target in assay [5] is T3, Recombinant NS1 from …. This is another data set of the same source.
The target of assay [6] is B3.
Assay [7] concerns the target T1, Recombinant NS1 from DENV-3-Sri Lanka ….
Assay [8] addresses T2, Recombinant NS1 from ….
For a further assay, the target named is Den3.

As a reminder, the koff is the rate constant with which the complex falls apart. As a reminder, the Kd is a measure of binding affinity in units of concentration.

T3 sequence (P29990 776-1127): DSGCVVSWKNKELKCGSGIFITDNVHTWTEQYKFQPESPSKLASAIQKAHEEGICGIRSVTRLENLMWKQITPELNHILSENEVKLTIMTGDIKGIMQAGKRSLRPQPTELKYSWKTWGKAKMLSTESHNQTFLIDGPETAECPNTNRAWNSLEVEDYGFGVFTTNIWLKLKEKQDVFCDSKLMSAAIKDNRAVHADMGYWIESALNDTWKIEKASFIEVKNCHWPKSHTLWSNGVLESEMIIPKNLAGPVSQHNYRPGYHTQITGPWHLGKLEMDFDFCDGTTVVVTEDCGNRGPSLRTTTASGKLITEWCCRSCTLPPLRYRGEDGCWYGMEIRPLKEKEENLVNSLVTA

B1: the koff was under 1e-07 s⁻¹ in assay [1], 9.79e-05 s⁻¹ in [2], 6.68e-05 s⁻¹ in assay [3] and under 1e-07 s⁻¹ in assay [4]. The Kd was under 1 pM in [5], 1060 pM in assay [6], 569 pM in assay [7] and under 1 pM in [8].
Turning to B2, the koff is under 1e-07 s⁻¹ in assay [1], 0.000344 s⁻¹ in [2] and 5.9e-05 s⁻¹ in [4]. Moreover, the Kd in assay [5] was under 1 pM; in assay [6] it was 2670 pM; in assay [8] it was 170 pM.
In the assay with Den3, B3 had a Kd of under 1 pM and a koff of under 1e-07 s⁻¹.
As for B4, the koff is under 1e-07 s⁻¹ in assay [1], 0.000221 s⁻¹ in assay [2], under 1e-07 s⁻¹ in assay [3] and 0.0016 s⁻¹ in assay [4]. In addition, the Kd in assay [5] was under 1 pM; in assay [6], 1610 pM; in assay [7], under 1 pM; in [8] it was 4410 pM.
